Source: patent publication US20050208120A1

Key:
[1] = target: T cell receptor of the I-A^d restricted OVA specific T cell hybridoma 8DO51.15; assay: flow cytometry; biotinylated MHC in liposomes, no peptide
[2] = target: T cell receptors of T cell populations derived from Iα52-supplemented FTOC and expanded with Hi15
[3] = target: T cell receptor of the I-A^d restricted OVA specific T cell hybridoma 8DO51.15; assay: flow cytometry; correct restriction element, irrelevant peptide, on 8D051.15 cells
[4] = target: T cell receptor of the I-A^d restricted OVA specific T cell hybridoma 8DO51.15; assay: flow cytometry; liposome:MHC:b-peptide with streptavidin-FITC on hybridoma cells, final MHC concentration 66 ug/ml
[5] = target: T cell receptors of CD4+ cells from BALB/c fetal thymic organ culture (FTOC); assay: flow cytometry T cell capture; FTOC alone without added peptide; polyclonal thymocytes
[6] = target: T cell receptors of CD4+ T cells from regional draining lymph nodes of BALB/c mice; assay: flow cytometry T cell capture; lymph node cells of Iα52-immunized BALB/c mice; polyclonal
[7] = target: T cell receptors of CD4+ cells from BALB/c fetal thymic organ culture (FTOC); assay: flow cytometry T cell capture; FTOC in the presence of 10^-2 mM Iα52; polyclonal thymocytes
[8] = target: T cell receptors of CD4+ T cells from regional draining lymph nodes of BALB/c mice; assay: flow cytometry T cell capture; lymph node cells of IFA-only immunized BALB/c mice; polyclonal
[9] = target: T cell receptors of T cell populations derived from Iα52-supplemented FTOC and expanded with Hi15; assay: flow cytometry; cells from Iα52-supplemented FTOC after two weeks with 10 ug/ml Hi15; polyclonal

B1: biotinylated I-A^d in liposomes without peptide (protein, mouse)
MHC II alpha: EDDIEADHVGFYGTTVYQSPGDIGQYTHEFDGDELFYVDLDKKKTVWRLPEFGQLILFEPQGGLQNIAAEKHNLGILTKRSNFTPATNEAPQATVFPKSPVLLGQPNTLICFVDNIFPPVINITWLRNSKSVTDGVYETSFLVNRDHSFHKLSYLTFIPSDDDIYDCKVEHWGLEEPVLKHWEPEIPAPMSELTE
MHC II beta: GNSERHFVVQFKGECYYTNGTQRIRLVTRYIYNREEYVRYDSDVGEYRAVTELGRPDAEYWNSQPEILERTRAEVDTACRHNYEGPETSTSLRRLEQPNVAISLSRTEALNHHNTLVCSVTDFYPAKIKVRWFRNGQEETVGVSSTQLIRNGDWTFQVLVMLEMTPHQGEVYTCHVEHPSLKSPITVEWRAQSESARSK
[1]
  % of cells bound: 6.9%

B2: liposome:I-A^d:biotinylated Hi15 peptide complex (peptide-MHC)
MHC II alpha: B1 MHC II alpha
MHC II beta: B1 MHC II beta
peptide: TSFPMRGDLAKREPDK
[2]
  % of CD4+ cells positive for both peptides: 31.1%
  % of cells positive: 52%
[3]
  % positive cells: 8.7%

B3: liposome:I-A^d:biotinylated OVA^323-336 peptide complex (peptide-MHC, mouse)
MHC II alpha: B1 MHC II alpha
MHC II beta: B1 MHC II beta
peptide: ISQAVHAAHAEINE
[4]
  % of cells stained positive: 87.2%

B4: liposome:I-A^d:biotinylated Iα52 peptide complex (peptide-MHC, mouse)
MHC II alpha: B1 MHC II alpha
MHC II beta: B1 MHC II beta
peptide: ASFEAQGALANIAVDKA
[2]
  % of CD4+ cells positive for both peptides: 31.1%
[5]
  % of CD4+ cells bound: 20.7%
[6]
  % of CD4+ T cells specific: 5.4%
[7]
  % of CD4+ cells bound: 50.9%
[8]
  % of CD4+ T cells specific: 0.7%
[9]
  % of cells bound: 52.8%
